Literature values as cited in publication PMC12583094, “A novel antioxidant peptide from black soybean [Glycine max (L.) Merr.] with verified MPO interaction and multi-scale antioxidant activity” (Frontiers in Nutrition, 2025).

System: MPO
From the text: The RU values increased from approximately 0.79 RU to around 24.51 RU with increasing concentrations.

binding to MPO by SPR: clear dose-dependent binding effect
B1: ceruloplasmin: a physiological MPO inhibitor (protein, UniProt P00450 20-1065, looked up)
Ceruloplasmin: KEKHYYIGIIETTWDYASDHGEKKLISVDTEHSNIYLQNGPDRIGRLYKKALYLQYTDETFRTTIEKPVWLGFLGPIIKAETGDKVYVHLKNLASRPYTFHSHGITYYKEHEGAIYPDNTTDFQRADDKVYPGEQYTYMLLATEEQSPGEGDGNCVTRIYHSHIDAPKDIASGLIGPLIICKKDSLDKEKEKHIDREFVVMFSVVDENFSWYLEDNIKTYCSEPEKVDKDNEDFQESNRMYSVNGYTFGSLPGLSMCAEDRVKWYLFGMGNEVDVHAAFFHGQALTNKNYRIDTINLFPATLFDAYMVAQNPGEWMLSCQNLNHLKAGLQAFFQVQECNKSSSKDNIRGKHVRHYYIAAEEIIWNYAPSGIDIFTKENLTAPGSDSAVFFEQGTTRIGGSYKKLVYREYTDASFTNRKERGPEEEHLGILGPVIWAEVGDTIRVTFHNKGAYPLSIEPIGVRFNKNNEGTYYSPNYNPQSRSVPPSASHVAPTETFTYEWTVPKEVGPTNADPVCLAKMYYSAVEPTKDIFTGLIGPMKICKKGSLHANGRQKDVDKEFYLFPTVFDENESLLLEDNIRMFTTAPDQVDKEDEDFQESNKMHSMNGFMYGNQPGLTMCKGDSVVWYLFSAGNEADVHGIYFSGNTYLWRGERRDTANLFPQTSLTLHMWPDTEGTFNVECLTTDHYTGGMKQKYTVNQCRRQSEDSTFYLGERTYYIAAVEVEWDYSPQREWEKELHHLQEQNVSNAFLDKGEFYIGSKYKKVVYRQYTDSTFRVPVERKAEEEHLGILGPQLHADVGDKVKIIFKNMATRPYSIHAHGVQTESSTVTPTLPGETLTYVWKIPERSGAGTEDSACIPWAYYSTVDQVKDLYSGLIGPLIVCRRPYLKVFNPRRKLEFALLFLVFDENESWYLDDNIKTYSDHPEKVNKDDEEFIESNKMHAINGRMFGNLQGLTMHVGDEVNWYLMGMGNEIDLHTVHFHGHSFQYKHRGVYSSDVFDIFPGTYQTLEMFPRTPGIWLLHCHVTDHIHAGMETTYTVLQNEDTKSG
